Data as given in patent US11857645B2, “Compositions of near IR closed chain, sulfo-cyanine dyes and prostate specific membrane antigen ligands” (priority 2016, dated 2024).

Experiments:
[1] = stability in dog plasma (in vitro metabolic stability studies); format: in vitro ADME
Procedure: (§1) For example, determination of metabolic stability is commonly examined when assessing the toxicity of a compound as it is one of several major determinates in defining the oral bioavailability and systemic clearance of a compound. After a compound is administered orally, it first encounters metabolic enzymes in the gastrointestinal lumen as well as in the intestinal epithelium. After it is absorbed into the bloodstream through the intestinal epithelium, it is first delivered to the liver via the portal vein. A compound can be effectively cleared by intestinal or hepatic metabolism before it reaches systemic circulation, a process known as first pass metabolism. The stability of a compound towards metabolism within the liver as well as extrahepatic tissues will ultimately determine the concentration of the compound found in the systemic circulation and affect its half-life and residence time within the body. Cytochrome P450 (CYP) enzymes are found primarily in the liver but also in the intestinal wall, lungs, kidneys and other extrahepatic organs and are the major enzymes involved in compound metabolism. Many compounds undergo deactivation by CYPs, either directly or by facilitated excretion from the body. […]
(§2) Further safety pharmacology was assessed in vitro using the human ether-a-go-go related gene (hERG) assay for determining possible cardio-toxic effects.

[2] = in vivo
Description: (§3) Other methods of assessing the toxicity of compounds include in vivo studies which administer relatively large doses of a test compound to a group of animals to determine the level which is lethal to a percentage of the population (mean lethal dose LD50 or mean lethal concentration LC50). Toxicity of a compound can also be assessed in vivo by examining whether a compound produces statistically significant negative effects on cardiac, blood pressure, central nervous system (CNS), body weight, food intake, gross or microscopic pathology, clinical pathology, or respiratory measures in an animal.
(§4) Furthermore, toxicology of the composition of formula III was also investigated in non-clinical in vivo studies in both rats and dogs.

[3] = in vitro metabolic stability: breakdown into metabolites; format: in vitro ADME
Procedure: as §1, §2

[4] = system: tester strains (histidine (his) biosynthetic operon mutants); test: Ames reverse mutation assay; format: cell-based; settings: any of the tested doses
Description: The Ames reverse mutation Assay is another common toxicology assay for assessing the toxicity of a compound. The Ames Assay, utilizes several different tester strains, each with a distinct mutation in one of the genes comprising the histidine (his) biosynthetic operon (Ames, B. N., et al., (1975) Mutation Res. 31:347-363). […] The Ames Assay is capable of detecting several different types of mutations (genetic damage) that may occur in one or more of the tester strains. The practice of using an in vitro bacterial assay to evaluate the genotoxic activity of drug candidates is based on the prediction that a substance that is mutagenic in a bacterium is likely to be carcinogenic in laboratory animals, and by extension may be carcinogenic or mutagenic to humans.
as §2

[5] = mortality in dog animal model; format: in vivo; settings: any tested dose
Description: as §3, §4

[6] = mortality in rat animal model; format: in vivo; settings: any tested dose
Description: as §3, §4

[7] = system: 9 major CYP liver enzymes; test: reactivity to CYP liver enzymes; format: in vitro ADME; settings: in vitro
Procedure: as §1, §2

[8] = stability in human plasma (in vitro metabolic stability studies); format: in vitro ADME
Procedure: as §1, §2

[9] = mortality in pig animal model; format: in vivo; settings: any tested dose
Description: as §3, §4

[10] = stability in rat plasma (in vitro metabolic stability studies); format: in vitro ADME
Procedure: as §1, §2

CC1(C)C(/C=C/C2=C(Oc3ccc(S(=O)(=O)O)cc3)C(=C/C=C3/N(CCCS(=O)(=O)O)c4ccccc4C3(C)CCCC(=O)NCCCCC(NC(=O)CCCCCCC(=O)NCCCC[C@H](NC(=O)N[C@@H](CCC(=O)O)C(=O)O)C(=O)O)C(=O)O)/CCC2)=[N+](CCCS(=O)(=O)[O-])c2ccccc21 (stereo partly drawn) [formula III]
stability in plasma [1]: stable
effects on body weight, food intake, gross or microscopic pathology and clinical pathology ([2]; dog): no significant effects
effects on cardiac, blood pressure or respiratory measures ([2]; dog): no statistically significant negative effects
effects on the central nervous system (CNS) ([2]; rat): no biologically meaningful effects
breakdown into metabolites [3]: does not appear to be broken down into metabolites
mutagenicity [4]: does not show any mutagenicity
mortality [5]: No mortality
mortality [6]: No mortality
reactivity to CYP liver enzymes [7]: does not show any significant reactivity
stability in plasma [8]: stable
mortality [9]: No mortality
stability in plasma [10]: stable
